In general, Kd refers to the equilibrium constant for the complex coming apart. By kon is commonly meant a measure of how fast the partners come together. Usually koff stands for a measure of how fast the partners let go of each other.

Where “and” joins values, the source holds several entries; their conditions need not be identical. Equal entries are not always repeated.

The values that follow come from US20090202526A1 (RINAT NEUROSCIENCE, published 2009).

Test [1] concerns the target T1, Human trkC-Fc fusion protein (human, UniProt Q16288 32-429).
T1 construct: Immobilised on CM5 chip for BIAcore; also called htrkC; not shown: Fc part not described
In words: BIAcore SPR.

For another test, the target named is Human trkC (KIRA assay) (human, UniProt Q16288 32-839, limits assumed). Nature of the test: cell-based or functional assay.
Sequence of Human trkC (KIRA assay) (Q16288 32-839 limits assumed): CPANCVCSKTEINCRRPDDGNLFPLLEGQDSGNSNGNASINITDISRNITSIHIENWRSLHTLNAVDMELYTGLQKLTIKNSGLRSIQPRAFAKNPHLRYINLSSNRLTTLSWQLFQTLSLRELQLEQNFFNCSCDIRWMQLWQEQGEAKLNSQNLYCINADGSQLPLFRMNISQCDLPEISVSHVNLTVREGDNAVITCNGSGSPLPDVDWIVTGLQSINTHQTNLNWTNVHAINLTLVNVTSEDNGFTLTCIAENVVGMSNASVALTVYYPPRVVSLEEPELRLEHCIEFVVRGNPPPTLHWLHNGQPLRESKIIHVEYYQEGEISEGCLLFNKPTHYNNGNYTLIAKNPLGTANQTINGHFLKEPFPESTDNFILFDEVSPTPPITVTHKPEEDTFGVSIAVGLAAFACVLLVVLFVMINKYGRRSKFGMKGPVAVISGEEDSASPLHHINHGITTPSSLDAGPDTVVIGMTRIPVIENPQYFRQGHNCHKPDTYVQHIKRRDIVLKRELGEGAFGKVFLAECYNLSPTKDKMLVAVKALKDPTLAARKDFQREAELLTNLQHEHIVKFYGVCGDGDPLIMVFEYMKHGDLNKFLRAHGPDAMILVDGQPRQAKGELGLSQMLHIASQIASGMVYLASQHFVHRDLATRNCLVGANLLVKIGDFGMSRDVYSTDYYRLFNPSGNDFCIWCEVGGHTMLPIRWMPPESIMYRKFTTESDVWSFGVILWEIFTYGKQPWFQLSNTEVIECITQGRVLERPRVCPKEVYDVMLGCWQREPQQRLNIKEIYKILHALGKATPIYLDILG
The target of test [2] is Rat trkC on trigeminal neurons (rat, UniProt Q03351 32-864). In words: cell-based or functional assay.
Sequence of Rat trkC on trigeminal neurons (Q03351 32-864): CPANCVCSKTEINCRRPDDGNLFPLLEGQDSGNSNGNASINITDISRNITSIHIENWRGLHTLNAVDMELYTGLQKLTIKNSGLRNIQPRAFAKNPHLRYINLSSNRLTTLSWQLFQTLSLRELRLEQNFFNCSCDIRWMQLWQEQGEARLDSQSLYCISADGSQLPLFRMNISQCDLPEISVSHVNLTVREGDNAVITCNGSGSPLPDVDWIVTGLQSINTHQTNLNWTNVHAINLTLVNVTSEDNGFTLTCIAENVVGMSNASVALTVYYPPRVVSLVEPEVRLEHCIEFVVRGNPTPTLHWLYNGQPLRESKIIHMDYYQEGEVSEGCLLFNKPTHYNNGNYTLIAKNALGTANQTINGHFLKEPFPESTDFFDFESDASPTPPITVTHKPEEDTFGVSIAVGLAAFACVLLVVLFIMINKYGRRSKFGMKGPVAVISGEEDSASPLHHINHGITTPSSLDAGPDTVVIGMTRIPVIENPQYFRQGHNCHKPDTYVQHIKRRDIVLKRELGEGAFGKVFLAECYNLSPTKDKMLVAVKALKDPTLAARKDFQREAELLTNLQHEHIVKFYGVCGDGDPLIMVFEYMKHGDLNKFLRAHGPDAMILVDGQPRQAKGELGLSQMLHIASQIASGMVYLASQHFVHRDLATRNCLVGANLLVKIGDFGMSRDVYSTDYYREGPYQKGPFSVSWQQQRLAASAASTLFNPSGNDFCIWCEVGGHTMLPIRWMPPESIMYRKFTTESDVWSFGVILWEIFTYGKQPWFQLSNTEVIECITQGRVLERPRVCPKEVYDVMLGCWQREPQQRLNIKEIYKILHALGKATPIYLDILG
The target of test [3] is T1, Human trkC-Fc fusion protein. Nature of the test: BIAcore SPR; value used in the footnote to calculate KD of the mutants.
Test [4] shares this target. In words: BIAcore SPR, Fab on human trkC. The protocol: (§1) Affinities of anti-trkC Fabs and monoclonal antibodies were determined using the BIAcore 3000™ surface plasmon resonance (SPR) system (BIAcore, INC, Piscaway N.J.). CM5 chips were activated with N-ethyl-N′-(3-dimethylaminopropyl)-carbodiimide hydrochloride (EDC) and N-hydroxysuccinimide (NHS) according to the supplier's instructions. Human or rat trkC-Fc fusion protein was diluted into 10 mM sodium acetate pH 5.0 and injected over the activated chip at a concentration of 0.005 mg/mL. Using variable flow time across the individual chip channels, two ranges of antigen density were achieved: 200-400 response units (RU) for detailed kinetic studies and 500-1000 RU for screening assays. The chip was blocked with ethanolamine. […] HBS-EP buffer (0.01M HEPES, pH 7.4, 0.15 NaCl, 3 mM EDTA, 0.005% Surfactant P20) was used as running buffer for all the BIAcore assays. […] The concentrations of the Fab proteins are determined by ELISA and/or SDS-PAGE electrophoresis using a Fab of known concentration (as determined by amino acid analysis) as a standard. Kinetic association rates (kₒₙ) and dissociation rates (koff) are obtained simultaneously by fitting the data to a 1:1 Langmuir binding model (Karlsson, R. Roos, H. Fagerstam, L. Petersson, B. (1994). Methods Enzymology 6. 99-110) using the BlAevaluation program. Equilibrium dissociation constant (KD) values are calculated as koff/kₒₙ.
(§2) We prepared antibody clones bearing the CDR and/or framework region substitution mutations shown in Table 1 and determine KD and other kinetic parameters using BIAcore analysis as described herein.
On the technique in general: Surface plasmon resonance follows binding to a sensor surface in real time, without labels.

Test [5] shares this target. In words: BIAcore SPR, Fab over immobilised human trkC-Fc. The protocol: as §1, §2
Test [6] addresses T2, Rat trkC-Fc fusion protein (rat, UniProt Q03351 32-429).
T2 construct: Immobilised on CM5 chip for BIAcore; not shown: Fc part not described
Nature of the test: BIAcore SPR, Fab over immobilised rat trkC-Fc. The protocol:
as §1

In test [7] the target is T1, Human trkC-Fc fusion protein. Nature of the test: BIAcore SPR, human trkC-Fc on chip; KD calculated from koff with 2256 kon 5E5 1/Ms.

B1: Mouse monoclonal agonist anti-trkC antibody 2256 (antibody, V domains shown)
VH: QVQLQQPGAELVKPGASVKLSCKASGYTFTSYWMHWVKQRPGQGLEWIGEIYPSNGRTNYNEKFKSKATLTVDKSSSTAYMQLSSLTSEDSAVYYCARKYYYGNSYRSWYFDVWGAGTTLTVS
VL: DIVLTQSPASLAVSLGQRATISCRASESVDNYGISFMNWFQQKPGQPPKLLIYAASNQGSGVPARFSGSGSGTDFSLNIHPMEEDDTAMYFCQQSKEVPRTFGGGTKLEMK
notes: Mouse monoclonal antibody
With B1, the Kd in test [1] is approximately 62 nM. Besides, in the test with Human trkC (KIRA assay), the “EC50, KIRA assay” value was approximately 40 nM. Besides, the “EC50, rat trigeminal neuron survival assay” value in test [2] is approximately 5 nM.

B2: Fab 2256 (parent) (Fab, V domains shown)
VH: QVQLQQPGAELVKPGASVKLSCKASGYTFTSYWMHWVKQRPGQGLEWIGEIYPSNGRTNYNEKFKSKATLTVDKSSSTAYMQLSSLTSEDSAVYYCARKYYYGNSYRSWYFDVWGAGTTLTVS
VL: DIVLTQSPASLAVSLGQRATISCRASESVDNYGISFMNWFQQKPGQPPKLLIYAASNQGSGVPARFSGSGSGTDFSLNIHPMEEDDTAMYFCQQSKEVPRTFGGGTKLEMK
With B2, the kon in test [3] is 500000 M⁻¹ s⁻¹. In test [4], this molecule showed a Kd of 40 nM and a koff of 0.02 s⁻¹.

B3: Fab A5, clone 129(T8)(H8xE10)(10B)(A5) (Fab, V domains shown)
VH: QVQLVQSGAEVKKPGASVKVSCKASGYTFTSYRIHWVRQAPGQGLEWMGEIYPSNARTNYNEKFKSRVTMTRDTSTSTVYMELSSLRSEDTAVYYCARKYYYGNTRRSWYFDVWGQGTTVTVS
VL: DIQMTQSPSSLSASVGDRVTITCRASESIDNYGISFLAWYQQKPGKAPKLLIYAASNRGSGVPSRFSGSGSGTDFTFTISSLQPEDIATYYCQQSKTVPRTFGQGTKLEIKR
notes: purified on Ni-NTA; also called A5 (Fab)
For the molecule B3, the Kd in test [5] is 0.28 nM; in test [6], 19 nM; in test [4], 0.28 nM. For the same molecule, the values for the dissociation rate constant (koff) in test [5], in test [6] and in test [4] were 0.00037 s⁻¹, 0.0267 s⁻¹ and 0.00037 s⁻¹, respectively. Moreover, the kon in test [5] and in test [6] was 1.3e+06 M⁻¹ s⁻¹ each time. Further, the “fold improvement of affinity over parent antibody 2256” value in test [1] came out at 200 fold.

B4: Fab clone 129(T8)(H8xE10)(10B) (Fab, V domains shown)
VH: QVQLVQSGAEVKKPGASVKVSCKASGYTFTSYRIHWVRQAPGQGLEWMGEIYPSNSRTNYNEKFKSRVTMTRDTSTSTVYMELSSLRSEDTAVYYCARKYYYGNSRRSWYFDVWGQGTTVTVS
VL: DIQMTQSPSSLSASVGDRVTITCRASESIDNYGISFLAWYQQKPGKAPKLLIYAASNRGSGVPSRFSGSGSGTDFTFTISSLQPEDIATYYCQQSKTVPRTFGQGTKLEIKR
Take B4: the koff turned out to be 0.0008 s⁻¹ in test [5] and 0.01 s⁻¹ in test [6]. Also, in test [7], the Kd was 1.6 nM.

B5: Fab clone 129(T8)(H8xE10)(4B) (Fab, V domains shown)
VH: QVQLVQSGAEVKKPGASVKVSCKASGYTFTSYRIHWVRQAPGQGLEWMGEIYPSNSRTNYNEKFKSRVTMTGDTSTSTVYMELSSLRSEDTAVYYCARKYYYGNSRRSWYFDVWGQGTTVTVS
VL: DIQMTQSPSSLSASVGDRVTITCRASESIDNYGISFLAWYQQKPGKAPKLLIYAASNRGSGVPSRFSGSGSGTDFTFTISSLQPEDIATYYCQQSKTVPRTFGQGTKLEIKR
For B5, the koff is 0.002 s⁻¹ in test [5]; 0.0289 s⁻¹ and 0.0627 s⁻¹ in test [6]. The dissociation constant Kd in test [7] is 4 nM.

B6: Fab clone 129(T8)(H8xE10) (Fab, V domains shown)
VH: QVQLVQSGAEVKKPGASVKVSCKASGYTFTSYRIHWVRQAPGQGLEWMGEIYPSNSRTNYNEKFKSRATMTGDKSTSTVYMELSSLRSEDTAVYYCARKYYYGNSRRSWYFDVWGQGTTVTVS
VL: DIQMTQSPSSLSASVGDRVTITCRASESIDNYGISFLAWYQQKPGKAPKLLIYAASNRGSGVPSRFSGSGSGTDFTFTISSLQPEDIATYYCQQSKTVPRTFGQGTKLEIKR
Regarding B6, the koff in test [5] came out at 0.001 s⁻¹; in test [6], 0.09 s⁻¹. Further, the dissociation constant (Kd) in test [7] was 2 nM.

B7: Fab clone 129(T8)(H8xE10)(10B)(E2) (Fab, V domains shown)
VH: QVQLVQSGAEVKKPGASVKVSCKASGYTFTSYRIHWVRQAPGQGLEWMGEIYPSNGRTNYNEKFKSRVTMTRDTSTSTVYMELSSLRSEDTAVYYCARKYYYGNTRRSWYFDVWGQGTTVTVS
VL: DIQMTQSPSSLSASVGDRVTITCRASESIDNYGISFLAWYQQKPGKAPKLLIYAASNRGSGVPSRFSGSGSGTDFTFTISSLQPEDIATYYCQQSKTVPRTFGQGTKLEIKR
In test [5], B7 showed a Kd of 0.25 nM, a koff of 0.00036 s⁻¹ and an on-rate (kon) of 1.4e+06 M⁻¹ s⁻¹. In test [6], binding was characterised by a dissociation constant (Kd) of 6 nM, the koff came out at 0.0094 s⁻¹ and the kon was 1.5e+06 M⁻¹ s⁻¹.
